Assay results published in US8652796 (Harvard, dated 2014).

Columns and labels:
[1] = target: T1, T Antigen-HA fusion protein (SV40, UniProt P03070 1-708); assay: fluorescence microscopy of COS cells expressing T Antigen-HA with GFP-471-721
T1 construct: Construct is not described

SV40 T antigen = target: T2, SV40 T antigen (SV40, UniProt P03070 1-708); assay: recruitment to inclusions, fluorescence microscopy of cells
T2 construct: also called T-Ag; viral (SV40) T antigen

T1 sequence (P03070 1-708, tags or fused parts left off): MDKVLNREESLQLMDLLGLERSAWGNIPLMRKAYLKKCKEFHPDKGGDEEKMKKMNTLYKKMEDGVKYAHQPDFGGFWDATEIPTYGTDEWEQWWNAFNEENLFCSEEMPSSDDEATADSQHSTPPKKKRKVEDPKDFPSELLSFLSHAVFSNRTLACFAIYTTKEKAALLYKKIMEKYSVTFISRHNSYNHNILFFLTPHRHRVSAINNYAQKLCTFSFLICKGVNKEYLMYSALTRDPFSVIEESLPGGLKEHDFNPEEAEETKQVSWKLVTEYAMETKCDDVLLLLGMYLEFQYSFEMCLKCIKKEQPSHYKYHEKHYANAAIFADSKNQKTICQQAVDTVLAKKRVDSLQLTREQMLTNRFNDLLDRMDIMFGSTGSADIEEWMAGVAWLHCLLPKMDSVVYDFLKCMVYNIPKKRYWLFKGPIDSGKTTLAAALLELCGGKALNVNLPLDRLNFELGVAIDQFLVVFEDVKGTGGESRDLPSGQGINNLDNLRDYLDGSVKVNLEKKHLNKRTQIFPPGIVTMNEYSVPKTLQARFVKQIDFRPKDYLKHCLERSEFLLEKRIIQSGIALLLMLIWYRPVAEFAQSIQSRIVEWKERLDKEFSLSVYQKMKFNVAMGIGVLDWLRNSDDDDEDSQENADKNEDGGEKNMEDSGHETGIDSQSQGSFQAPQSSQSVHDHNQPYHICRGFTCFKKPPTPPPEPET

B1: GFP/µNS(471-721) (other)
chain: SNDVTDGIKLQLDASRQCHECPVLQQKVVELEKQIIMQKSIQSDPTPVALQPLLSQLRELSSEVTRLQMELSRAQSLNAQLEADVKSAQSCSLDMYLRHHTCINGHAKEDELLDAVVAPDVRREIMEKRSEVRQGWCERISKEAAAKCQTVIDDLTLMNGKQAQEITELRDSAEKYEKQIAELVSTITQNQITYQQELQALVAKNVELDALNQRQAKSLRITPSLLSATPIDSVDDVADLIDFSVPTDEL
notes: Expressed from pEGFP-C1-M3(471-721); GFP at the N terminus of µNS residues 471-721; also called GFP-471-721 fusion protein; EGFP/µNS(471-721); not shown: enhanced Aequorea victoria green fluorescent protein (EGFP) as encoded by the pEGFP-C1 vector (BD Biosciences); the enha
binding result [1]: no binding | binding result (SV40 T antigen): no binding
